The values that follow come from article PMC4242836 (The Journal of Cell Biology, 2014).

This test addresses T1, Snu13p (S. cerevisiae, UniProt P39990 1-126).
T1 sequence: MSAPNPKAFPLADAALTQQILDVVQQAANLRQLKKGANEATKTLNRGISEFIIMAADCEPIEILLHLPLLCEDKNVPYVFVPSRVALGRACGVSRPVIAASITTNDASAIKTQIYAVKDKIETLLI
Kind of test: crystal structure.

B1: Rsa1_(238–290) (domain or fragment)
chain: TDEDVKKWREERKKMWLLKISNNKQKHMQEMGIKEDELKSQPSIFKESRKEKQ
Regarding B1, the binding result was “binds”.
